Measurements: article PMC2808246, “Mycobacterial Nucleoside Diphosphate Kinase Blocks Phagosome Maturation in Murine Raw 264.7 Macrophages” (PLoS ONE, 2010)

T1: Rab5a GTPase, recombinant, GTP-loaded (UniProt P20339 1-215)
T1 sequence: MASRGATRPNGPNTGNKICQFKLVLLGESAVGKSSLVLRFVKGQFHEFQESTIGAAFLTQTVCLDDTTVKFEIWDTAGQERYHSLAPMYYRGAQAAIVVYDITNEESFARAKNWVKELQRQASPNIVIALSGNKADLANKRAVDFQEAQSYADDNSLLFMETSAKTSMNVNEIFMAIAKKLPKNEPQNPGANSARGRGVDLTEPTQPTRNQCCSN


Tests used:
[1] = molecular target: Rab7 GTPase, recombinant, GTP-loaded (UniProt P51149 1-207); experiment: cell-based or functional assay
Rab7 GTPase, recombinant, GTP-loaded, sequence (P51149 whole entry): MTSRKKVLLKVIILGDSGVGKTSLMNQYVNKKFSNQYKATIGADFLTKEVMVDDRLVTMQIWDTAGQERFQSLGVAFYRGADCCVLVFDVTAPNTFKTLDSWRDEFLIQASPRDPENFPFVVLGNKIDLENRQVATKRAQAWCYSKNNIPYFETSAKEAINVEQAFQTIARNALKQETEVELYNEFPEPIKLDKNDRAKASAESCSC

[2] = molecular target: T1, Rab5a GTPase, recombinant, GTP-loaded; experiment: cell-based or functional assay

Binder	GAP activity: depletion of the gamma phosphate of [γ-32P]GTP bound to Rab7 spotted on nitrocellulose, after 2 h with 10 µg/ml Ndk, relative to untreated [1] [%]	GAP activity: depletion of the gamma phosphate of [γ-32P]GTP bound to Rab5 spotted on nitrocellulose, after 2 h with 10 µg/ml Ndk, relative to untreated [2] [%]	GAP activity: reduction of [γ-32P]GTP bound to Rab5 spotted on nitrocellulose, after 2 h with 10 µg/ml Ndk, relative to untreated [2] [%]
Mycobacterium tuberculosis nucleoside diphosphate kinase (Ndk), recombinant (enzyme) MTERTLVLIKPDGIERQLIGEIISRIERKGLTIAALQLRTVSAELASQHYAEHEGKPFFGSLLEFITSGPVVAAIVEGTRAIAAVRQLAGGTDPVQAAAPGTIRGDFALETQFNLVHGSDSAESAQREIALWFPGA	90	95	–
Mycobacterium smegmatis nucleoside diphosphate kinase (Ndk), recombinant (enzyme) MTERTLVLIKPDGVKRQLVGEILSRIERKGLTLAALELKNVSDDLARQHYAEHADKPFFGSLLEFITSGPLVAAIVEGPRAVAAFRQIAGGTDPVEKAVPGTIRGDFALITQDNLVHGSDSPESAAREIALWFPGEATA	–	–	35
